The source of these data is paper PMC9934072, “The mechanism of thia-Michael addition catalyzed by LanC enzymes” (Proceedings of the National Academy of Sciences of the …, 2023).

A word on the Kd: it is a measure of binding affinity in units of concentration. Low readings indicate a tighter complex, high ones a looser complex.

Ends that are not written are not given here.

The target of test [1] is fluorescein-labeled Dha-Erk peptide. The test is described as follows: fluorescence polarisation; LanCL1 or variant titrated (highest 400 μM, 300 μM for some variants) against 20 nM fluorescein-peptide; 0.5 mM TCEP, 0.1 mM ZnCl2, 150 mM NaCl, 100 mM Tris pH 7.5, no GSH; 15 min incubation; triplicates. (In general: Polarisation of emitted light reports the rotation of a fluorescent probe.)

Test [2] has as its target Fluorescein-labeled Erk peptide in which the Dha was substituted by L-Ala. In words: fluorescence polarisation; fluorescein-labeled peptide with LanCL1 or its variants; in the absence of GSH to avoid catalytic turnover.
For test [3], the target named is T1, LanCL1 Wild Type (human LanC-like protein 1) (human, UniProt O43813 1-399).
T1 construct: LanC-like protein 1 (LanCL1), human; also called LanCL1 WT; WT-LanCL1; source: E. coli Rosetta 2 (DE3), purified (HisTrap Ni-NTA, PD-10 desalting)
The test is described as follows: fluorescence polarisation; LanCL1 or variant titrated (highest 400 μM, 300 μM for some variants) against 20 nM fluorescein-peptide; 0.5 mM TCEP, 0.1 mM ZnCl2, 150 mM NaCl, 100 mM Tris pH 7.5, no GSH; 15 min incubation; triplicates. To be noted: both partners purified.

Test [4] has as its target T1, LanCL1 Wild Type (human LanC-like …). Described as above. As to conditions: both partners purified. The source holds these as a separate data set.

T1 sequence (O43813 whole entry): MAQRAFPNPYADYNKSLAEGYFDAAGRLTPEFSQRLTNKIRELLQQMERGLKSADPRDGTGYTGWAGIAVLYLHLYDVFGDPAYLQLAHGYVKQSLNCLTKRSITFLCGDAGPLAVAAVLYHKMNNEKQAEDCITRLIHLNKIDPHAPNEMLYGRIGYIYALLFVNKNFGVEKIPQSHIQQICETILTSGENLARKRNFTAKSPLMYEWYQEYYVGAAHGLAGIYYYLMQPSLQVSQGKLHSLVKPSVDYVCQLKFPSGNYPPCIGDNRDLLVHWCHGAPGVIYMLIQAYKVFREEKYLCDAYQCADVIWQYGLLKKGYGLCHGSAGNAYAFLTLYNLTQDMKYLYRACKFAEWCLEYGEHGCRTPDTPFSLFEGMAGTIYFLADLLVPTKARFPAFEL

With “LanCL1 C264A/H277A (from UniProt O43813 1-399) (enzyme)”, in test [1], the Kd was more than 112 µM. Consider “LanCL1 C264A/H277K (from UniProt O43813 1-399) (enzyme)”, for which the Kd in test [1] is more than 470 µM. In the case of “LanCL1 C264A/H277N (from UniProt O43813 1-399) (enzyme)”, the Kd in test [1] was more than 315 µM. On to “human LanCL1, wild type (His6-LanCL1) (from UniProt O43813 1-399) (enzyme)”, for which, in test [2], the fold weaker binding than Flu-Dha-Erk came out at 4 fold.

B1: fluorescein-labeled Ala-Erk peptide (peptide)
peptide: DHTGFLAEYVATR
modifications: also: fluorescein label, end not given here
notes: Numbers count on: the synthetic 13-mer; Its preparation is not described; also called Flu-Ala-Erk; fluorescein-Ala-Erk
Take B1: the results for the Kd in test [3] and in test [4] were more than 133 µM and 79.6 ± 7.6 µM, respectively.
